To fix the notation:
B1: HMOX1 (parent)
chain: YHIYVALEEEIERNKESPVFAPVY
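Further: lentivirally expressed fusions sorted by FACS into six bins by GFP to DsRed ratio, PSI derived from sequencing read proportions per bin multiplied by bin number.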

This series covers variants of B1. Briefly: protein stability index of a GFP-peptide fusion (GPS, HEK-293T) (PSI 1-6); higher = more stable. The settings on record: c terminus: a fixed tail appended.
As to YHIYVALEGEIERNKESPVFAPVY, the protein stability index is 2.06.

With YHIYVALENEIERNKESPVFAPVY, the protein stability index came to 2.26.

Regarding YHIYVALEHEIERNKESPVFAPVY, the protein stability index amounted to 1.58.

As to YHIYVALEFEIERNKESPVFAPVY, the protein stability index came to 2.43.

As for YHIYVALEMEIERNKESPVFAPVY, the protein stability index turned out to be 1.72.

On to YHIYVALEREIERNKESPVFAPVY, for which the protein stability index was found to be 2.02.

As to YHIYTALEEEIERNKESPVFAPVY, the protein stability index came to 3.39.

With YHIYGALEEEIERNKESPVFAPVY, the protein stability index stood at 2.23.

For the variant YHIYCALEEEIERNKESPVFAPVY, the protein stability index was 1.79.

With YHIYDALEEEIERNKESPVFAPVY, the protein stability index amounted to 4.82.

YHIYEALEEEIERNKESPVFAPVY: the protein stability index came to 4.87.

Regarding YHIYPALEEEIERNKESPVFAPVY, the protein stability index turned out to be 2.43.

With YHIYQALEEEIERNKESPVFAPVY, the protein stability index worked out at 3.94.

On to YHIYVALEEEIERNKESPIFAPVY, for which the protein stability index turned out to be 1.72.

Regarding YHIYVALEEEIERNKESPLFAPVY, the protein stability index worked out at 1.7.

As to YHIYVALEEEIERNKESPAFAPVY, the protein stability index turned out to be 2.3.

For the variant YHIYVALEEEIERNKESPPFAPVY, the protein stability index came out at 2.35.

Turning to YHIYVALEEEIERNKESPSFAPVY, the protein stability index was found to be 2.15.

On to YHIYVALEEEIERNKESPTFAPVY, for which the protein stability index worked out at 2.32.

Take YHIYVALEEEIERNKESPWFAPVY: the protein stability index turned out to be 1.57.

As to YHIGVALEEEIERNKESPVFAPVY, the protein stability index came out at 1.64.

For the variant YHIFVALEEEIERNKESPVFAPVY, the protein stability index came to 4.8.

Regarding YHIMVALEEEIERNKESPVFAPVY, the protein stability index was 1.36.

For the variant YHISVALEEEIERNKESPVFAPVY, the protein stability index was determined as 1.58.

Consider YHINVALEEEIERNKESPVFAPVY, for which the protein stability index was determined as 2.03.

Turning to YHIAVALEEEIERNKESPVFAPVY, the protein stability index is 2.34.

As for YHIQVALEEEIERNKESPVFAPVY, the protein stability index came out at 2.35.

Consider YHITVALEEEIERNKESPVFAPVY, for which the protein stability index was found to be 1.59.

On to YHIYVALIEEIERNKESPVFAPVY, for which the protein stability index came to 2.51.

Consider YHIYVALVEEIERNKESPVFAPVY, for which the protein stability index is 2.3.

As for YHIYVALTEEIERNKESPVFAPVY, the protein stability index came to 2.19.

On to YHIYVALYEEIERNKESPVFAPVY, for which the protein stability index was found to be 1.05.

Regarding YHIYVALGEEIERNKESPVFAPVY, the protein stability index is 3.48.

For the variant YHIYVALDEEIERNKESPVFAPVY, the protein stability index came to 1.53.

Consider YHIYVALAEEIERNKESPVFAPVY, for which the protein stability index came to 2.31.

YHIYVALHEEIERNKESPVFAPVY: the protein stability index came out at 2.18.

YDIYVALEEEIERNKESPVFAPVY: the protein stability index amounted to 3.19.

Consider YEIYVALEEEIERNKESPVFAPVY, for which the protein stability index was 3.12.

Take YPIYVALEEEIERNKESPVFAPVY: the protein stability index amounted to 2.62.

As to YMIYVALEEEIERNKESPVFAPVY, the protein stability index was found to be 2.17.

As for YKIYVALEEEIERNKESPVFAPVY, the protein stability index amounted to 2.61.

In the case of YYIYVALEEEIERNKESPVFAPVY, the protein stability index is 1.89.

As to YQIYVALEEEIERNKESPVFAPVY, the protein stability index came out at 3.32.

As for YIIYVALEEEIERNKESPVFAPVY, the protein stability index was 1.51.

For the variant YRIYVALEEEIERNKESPVFAPVY, the protein stability index came out at 2.72.

For YFIYVALEEEIERNKESPVFAPVY, the protein stability index worked out at 2.25.

Take YTIYVALEEEIERNKESPVFAPVY: the protein stability index came out at 2.18.

As to YHIYVKLEEEIERNKESPVFAPVY, the protein stability index is 2.42.

Turning to YHIYVNLEEEIERNKESPVFAPVY, the protein stability index came out at 1.59.

As for YHIYVVLEEEIERNKESPVFAPVY, the protein stability index worked out at 3.22.

Consider YHIYVWLEEEIERNKESPVFAPVY, for which the protein stability index stood at 2.2.

For YHIYVLLEEEIERNKESPVFAPVY, the protein stability index is 2.1.

As for YHIYVCLEEEIERNKESPVFAPVY, the protein stability index stood at 1.64.

Regarding YHIYVDLEEEIERNKESPVFAPVY, the protein stability index was 1.81.

Take YHIYVHLEEEIERNKESPVFAPVY: the protein stability index worked out at 3.14.

Take YHIYVYLEEEIERNKESPVFAPVY: the protein stability index was 2.62.

Consider YHIYVRLEEEIERNKESPVFAPVY, for which the protein stability index came out at 1.7.

Take FHIYVALEEEIERNKESPVFAPVY: the protein stability index was 2.03.

Regarding MHIYVALEEEIERNKESPVFAPVY, the protein stability index came out at 2.35.

For HHIYVALEEEIERNKESPVFAPVY, the protein stability index was 2.5.

With EHIYVALEEEIERNKESPVFAPVY, the protein stability index was found to be 4.37.

In the case of THIYVALEEEIERNKESPVFAPVY, the protein stability index was found to be 3.71.

As for QHIYVALEEEIERNKESPVFAPVY, the protein stability index was determined as 2.78.

For the variant YHIYVALEENIERNKESPVFAPVY, the protein stability index turned out to be 3.21.

Take YHIYVALEEVIERNKESPVFAPVY: the protein stability index is 1.92.

Consider YHIYVALEEIIERNKESPVFAPVY, for which the protein stability index is 1.74.

Turning to YHIYVALEECIERNKESPVFAPVY, the protein stability index came out at 1.93.

Regarding YHIYVALEEQIERNKESPVFAPVY, the protein stability index stood at 2.7.

Take YHIYVALEEWIERNKESPVFAPVY: the protein stability index turned out to be 1.26.

For the variant YHIYVALEETIERNKESPVFAPVY, the protein stability index was 2.83.

For the variant YHIYVALEEMIERNKESPVFAPVY, the protein stability index was found to be 1.77.

For YHIYVALEEEIERNKESPVKAPVY, the protein stability index worked out at 2.27.

On to YHIYVALEEEIERNKESPVNAPVY, for which the protein stability index was determined as 2.78.

Regarding YHIYVALEEEIERNKESPVGAPVY, the protein stability index is 3.15.

For YHIYVALEEEIERNKESPVYAPVY, the protein stability index was found to be 2.19.

For YHIYVALEEEIERNKESPVPAPVY, the protein stability index amounted to 2.82.

Turning to YHIYVALEEEIERNKESPVSAPVY, the protein stability index is 2.78.

Regarding YHIYVALEEEIERNKESPVEAPVY, the protein stability index stood at 2.52.

With YHIYVALEEEIERNKESPVMAPVY, the protein stability index was 2.81.

Regarding YHIYVALEEEIERNKESPVTAPVY, the protein stability index worked out at 2.57.

YHIYVALEEEIERNKESPVIAPVY: the protein stability index was 2.25.

As to YHIYVALEEEIERNKESPVRAPVY, the protein stability index came to 2.95.

As to YHIYVALEEEIERNKESPVLAPVY, the protein stability index was found to be 2.66.

As for YHIYVALEEEIERNKESPVFWPVY, the protein stability index came to 1.7.

Turning to YHIYVALEEEIERNKESPVFMPVY, the protein stability index was 1.99.

As for YHIYVALEEEIERNKESPVFDPVY, the protein stability index worked out at 2.91.

Consider YHIYVALEEEIERNKESPVFEPVY, for which the protein stability index worked out at 2.41.

With YHIYVALEEEIERNKESPVFTPVY, the protein stability index was 2.

Regarding YHIYVALEEEIERNKESPVFKPVY, the protein stability index came to 2.8.

Turning to YHIYVALEEEIERNKESPVFLPVY, the protein stability index was 1.58.

For the variant YHIYVALEEEIERNKEGPVFAPVY, the protein stability index worked out at 2.29.

On to YHIYVALEEEIERNKEFPVFAPVY, for which the protein stability index was 1.88.

As for YHIYVALEEEIERNKEEPVFAPVY, the protein stability index was determined as 1.85.

Take YHIYVALEEEIERNKEMPVFAPVY: the protein stability index came out at 1.93.
